Residues, ends and D or L forms follow the SMILES beside them. *: point of attachment. Butanoyl(4-pyren-1-yl) = O=C(CCCc1ccc2ccc3cccc4ccc1c2c34)*
Experiments:
[1] = Solubility and aggregation of pyrene-labeled peptides seen by absorption and fluorescence; conditions: for solubility in ethanol and methanol: judged from narrow absorption bands
Procedure: The solutions of HSA (concentration = 3 10^−5 M) were prepared by dissolving the protein in 0.01 M of phosphate buffer saline (PBS, [NaCl] = 150 mM), pH = 7.2. […] The prepared samples were used within 24 h. […] The concentration of HSA was verified spectrophotometrically using the molar absorption coefficient 35500 M^−1cm^−1 at 280 nm for HSA [61]. In order to ensure complete protein hydration, the solutions were stored at room temperature for at least 1 h before measurements. The samples for fluorescence measurements were saturated with argon or deaerated with a vacuum pump.
The absorbances of Py-LYQLENY and Py-VEALYL were determined in 10 mM standard PBS solution, ethanol, methanol, and 10 mM TX-100. The spectra were normalized to a maximum of S0→S2 […]
band (Figure 4, panel I).
(1 picture or pasted object on this page, not shown here)
Fig. S7. Panel I: Normalized absorption spectra of Py-LYQLENY (a) and Py-VEALYL (b) in different solvents. Panel II: Normalized emission spectra of Py-LYQLENY (a) and Py-VEALYL (b) in different […]
We also investigated the solubility of Py-LYQLENY conjugate (2) in dioxane.
This allowed the molar coefficient absorbance to be determined, using the gravimetric […]
The addition of a small amount of concentrated
Py-LYQLENY stock solution in dioxane to the buffer solution enabled the molar absorbance coefficient […]
In order to investigate the possible aggregation of the fluorescence labeled insulin hot spots in the buffer solution, spectrophotometric titration was performed for Py -LYQLENY (2) in a range of concentration from 2.9 to 56.4 µM. Titration was carried out until there were no significant changes in fluorescence intensity.
The fluorescence spectra were recorded for each concentration (Figure 5a). After normalization of the […]
Fig. S8. Fluorescence spectra of Py-LYQLENY in PBS solutions recorded for the given probe

HSA [2] = biological target: T1, HSA (Homo sapiens, UniProt P02768); test: Steady-state fluorescence titration with HSA (binding constant Kb); conditions: Py-LYQLENY 3 µM in buffer, fluorescence intensity as function of HSA concentration (plateau at 45 µM), Equation (3)
T1 construct: purchased Sigma-Aldrich
Procedure: The prepared samples were used within 24 h.
Steady-state absorption and fluorescence spectra were recorded at a resolution of 0.5 nm using an Aminco Bowman AB2 Series spectrofluorometer (Thermo Fisher Scientific Inc., Waltham, MA, USA). Unless otherwise indicated, in emission measurements, the excitation wavelength was 337 nm, and excitation and emission slits were set to 2.0 and 0.5 nm, respectively.
For Py-LYQLENY conjugate (2), the binding constants Kb were calculated according to Equation (3) proposed by Kuzmin et al.:θ = Kb·[HSA] / (1+ Kb·[HSA])(3) where [HSA] is the concentration of the albumin [61], θ = (I − I0)/(I∞ − I0) is the fraction of the pyrene probe bound with HSA, I0 is fluorescence intensity without HSA, I∞ is fluorescence intensity with [HSA] = 45 µM (reaching a plateau, Figure 6b) and I is the fluorescence intensity for subsequent […].
The calculated value also confirmed existence of interactions between 2 and HSA with pyrene fragment presented on less polar environment inside protein. […] The binding constants 1.5 ± 0.3 × 10^6 dm^3 mol^−1 to 6.5 ± 0.4 × 10^7 dm^3 mol^−1 were calculated for complexes of HSA with Py-hydrophobic peptide.

[3] = Time-resolved fluorescence decay of the pyrene label in buffer or TX-100 (no protein); assay type: physicochemical; conditions: λexc 337 nm; for <τ> average fluorescence lifetime / A1 (amplitude of fast component, aggregate fraction) / A2 (amplitude of slow component, monomer) / τ1 (fast component, aggregate form) / τ2 (slow component, monomer form): [Py-Ins] 16.38 μM, λem 405 nm; for <τ> average fluorescence lifetime: Equation (2); for A1 (amplitude of fast component, aggregate fraction) / A2 (amplitude of slow component, monomer) / τ1 (fast component, aggregate form) / τ2 (slow component, monomer form): bi-exponential fit
HSA [4] = biological target: T1, HSA; test: Time-resolved fluorescence decay of the pyrene label in the presence of HSA; assay type: binding; conditions: for <τ> average fluorescence lifetime / A1 (amplitude of fast component, aggregate fraction) / A2 (amplitude of slow component, monomer) / τ1 (fast component, aggregate form) / τ2 (slow component, monomer form): 30 μM HSA in PBS, [Py-Ins] 16.38 μM, λem 405 nm; for <τ> average fluorescence lifetime: Equation (2); for A1 (amplitude of fast component, aggregate fraction) / A2 (amplitude of slow component, monomer) / τ1 (fast component, aggregate form) / τ2 (slow component, monomer form): bi-exponential fit
Procedure: The solutions of HSA (concentration = 3 10^−5 M) were prepared by dissolving the protein in 0.01 M of phosphate buffer saline (PBS, [NaCl] = 150 mM), pH = 7.2. […] The prepared samples were used within 24 h. […] In order to ensure complete protein hydration, the solutions were stored at room temperature for at least 1 h before measurements. The samples for fluorescence measurements were saturated with argon or deaerated with a vacuum pump.
Time-resolved measurements of HSA fluorescence were performed using a flash photolysis system based on a GL-3300 nitrogen laser (Photon Technology International, Birmingham, NJ, USA) providing single light pulses with a wavelength of 337.1 nm, duration ~800 ps, and average energy 100 µJ. The detection system consisted of a Baush&Lomb monochromator (Rochester, NY, USA), Hamamatsu 1P28 photomultiplier, and a PS325 power supply system (Stanford Research, Sunnyvale, CA, USA). […] All experiments were carried out at room temperature (25 ± 1 °C) using quartz cells with an optical length of 1 cm.

HSA [5] = biological target: T1, HSA; test: Quenching of pyrene fluorescence by acrylamide (Stern-Volmer) in buffer and HSA solution; assay type: binding; conditions: [HSA] 30 µM, Stern-Volmer plots
Procedure: Additionally, we examined the quenching of Py-LYQLENY and Py-VEALYL by acrylamide (ACR) in the buffer solution and HSA solution (Figure 5 Stern-Volmer plots).
Figure 5 Stern–Volmer plots for quenching of Py-LYQLENY and Py-VEALYL by ACR in the buffer and HSA solution. I0 is fluorescence intensity without quencher, I—fluorescence intensity at various concentrations of ACR, [HSA] = 30 µM.

[6] = Absorption spectra of the filtered HSA/Py-Ins complex on storage; assay type: physicochemical; conditions: [Py-Ins] 16.38 μM, [HSA] 30 μM, filtered through 0.2 µm syringe filter, spectra after 2, 4 and 6 days
Procedure: Broad absorption bands can indicate the presence of Py-Ins aggregates. Therefore, a solution of Py-Ins (1) complex with HSA was filtered through a 0.2 µm syringe filter in order to remove any Py-Ins aggregates, and the stability of the complex was tested for a further 6 days. […] This may indicate that the Py-Ins (1) conjugate was completely bound to the HSA, and that the protein has a protective role in the aggregation process. Additional confirmation of this was provided by the observed linear increase in Py-Ins absorbance for the samples diluted with 30 µM HSA solution (Figure 2, panel IIb).

Compound: CC(C)C[C@H](NC(=O)CCCc1ccc2ccc3cccc4ccc1c2c34)C(=O)N[C@@H](Cc1ccc(O)cc1)C(=O)N[C@@H](CCC(N)=O)C(=O)N[C@@H](CC(C)C)C(=O)N[C@@H](CCC(=O)O)C(=O)N[C@@H](CC(N)=O)C(=O)N[C@@H](Cc1ccc(O)cc1)C(=O)O [Py-LYQLENY, Py-LYQLENY-OH] ({Butanoyl(4-pyren-1-yl)}-LYQLENY-OH)
- solubility in aqua media in the presence of HSA [1]: increased significantly
- solubility in dioxane [1]: dissolved relatively well
- solubility in the buffer solution compared with dioxane ([1]; PBS): lower
- solubility in ethanol and methanol [1]: good
- binding constant Kb (HSA [2]): 2 × 10^5 dm^3 mol^−1

Compound: CC(C)C[C@H](NC(=O)[C@H](Cc1ccc(O)cc1)NC(=O)[C@H](CC(C)C)NC(=O)[C@H](C)NC(=O)[C@H](CCC(=O)O)NC(=O)[C@@H](NC(=O)CCCc1ccc2ccc3cccc4ccc1c2c34)C(C)C)C(=O)O [Py-VEALYL, Py-VEALYL-OH] ({Butanoyl(4-pyren-1-yl)}-VEALYL-OH)
- solubility in aqua media in the presence of HSA [1]: increased significantly
- aggregation in buffer solution ([1]; 0.01 M PBS, 150 mM NaCl, pH 7.2): partial aggregation
- solubility in ethanol and methanol [1]: good
- τPBS, lifetime of fluorescence decay in PBS ([3]; PBS, mono-exponential kinetics, λem 400 nm, short lifetime taken as sign of aggregation): 43.9 ns
- τHSA, lifetime of fluorescence decay in the presence of HSA (HSA [4]; [HSA] 30 μM, bi-exponential kinetics, average lifetime by Equation (2), λexc 337 nm, λem 400 nm): 153.9 ns
- quenching by acrylamide in the presence of HSA versus buffer (slope of I0/I vs. ACR concentration) (HSA [5]): protected against interaction with the quencher

Compound: Py-Ins: derivative of human insulin labeled with 4-(1-pyrene)butyric acid
- <τ> average fluorescence lifetime ([3]; 20 mM TX-100, filtered): 161.2 ns
- A1 (amplitude of fast component, aggregate fraction) ([3]; 20 mM TX-100, filtered): 0.1
- A2 (amplitude of slow component, monomer) ([3]; 20 mM TX-100, filtered): 0.9
- τ1 (fast component, aggregate form) ([3]; 20 mM TX-100, filtered): 18.2 ns
- τ2 (slow component, monomer form) ([3]; 20 mM TX-100, filtered): 162.0 ns
- <τ> average fluorescence lifetime ([3]; 20 mM TX-100, non-filtered): 147.9 ns
- A1 (amplitude of fast component, aggregate fraction) ([3]; 20 mM TX-100, non-filtered): 0.2
- A2 (amplitude of slow component, monomer) ([3]; 20 mM TX-100, non-filtered): 0.8
- τ2 (slow component, monomer form) ([3]; 20 mM TX-100, non-filtered): 152.7 ns
- A1 (amplitude of fast component, aggregate fraction) ([3]; PBS buffer, filtered): 0.2
- A2 (amplitude of slow component, monomer) ([3]; PBS buffer, filtered): 0.8
- τ1 (fast component, aggregate form) ([3]; PBS buffer, filtered): 20.1 ns
- τ2 (slow component, monomer form) ([3]; PBS buffer, filtered): 98.8 ns
- <τ> average fluorescence lifetime ([3]; PBS buffer, non-filtered): 86.6 ns
- A1 (amplitude of fast component, aggregate fraction) ([3]; PBS buffer, non-filtered): 0.5
- A2 (amplitude of slow component, monomer) ([3]; PBS buffer, non-filtered): 0.5
- τ2 (slow component, monomer form) ([3]; PBS buffer, non-filtered): 98.4 ns
- stability of the HSA complex / aggregation: changes of absorption spectra on storage [6]: no changes were observed
- <τ> average fluorescence lifetime (HSA [4]; filtered, λexc 337 nm): 145.6 ns
- A1 (amplitude of fast component, aggregate fraction) (HSA [4]; filtered, λexc 337 nm): 0.2
- A2 (amplitude of slow component, monomer) (HSA [4]; filtered, λexc 337 nm): 0.8
- τ1 (fast component, aggregate form) (HSA [4]; filtered, λexc 337 nm): 19.4 ns
- τ2 (slow component, monomer form) (HSA [4]; filtered, λexc 337 nm): 150.4 ns
- <τ> average fluorescence lifetime (HSA [4]; non-filtered, λexc 337 nm): 133.6 ns
- A1 (amplitude of fast component, aggregate fraction) (HSA [4]; non-filtered, λexc 337 nm): 0.4
- A2 (amplitude of slow component, monomer) (HSA [4]; non-filtered, λexc 337 nm): 0.6
- τ1 (fast component, aggregate form) (HSA [4]; non-filtered, λexc 337 nm): 19.1 ns
- τ2 (slow component, monomer form) (HSA [4]; non-filtered, λexc 337 nm): 143.8 ns
- aggregate fraction (HSA [4]; diluted Py-Ins/HSA solutions, [Py-Ins]/[HSA] = 0.11, data not shown): about 20%

From article PMC7601681, “Human Serum Albumin Binds Native Insulin and Aggregable Insulin Fragments and Inhibits Their Aggregation” (Biomolecules, 2020)
